In patent US20220332804A1 (CSL INNOVATION, published 2022):

How the values were obtained:
Assay in all cases: SPR; KD relative to WT C2;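 further: biacore SPR at 37 °C, anti-C2 mAbs captured on an anti-human IgG chip, alanine or serine C2 surface mutants tested, KD from 1:1 fit compared with wild-type C2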
human C2 E686A = molecular target: T1, human C2 E686A (human, UniProt P06681 21-752)
T1 sequence: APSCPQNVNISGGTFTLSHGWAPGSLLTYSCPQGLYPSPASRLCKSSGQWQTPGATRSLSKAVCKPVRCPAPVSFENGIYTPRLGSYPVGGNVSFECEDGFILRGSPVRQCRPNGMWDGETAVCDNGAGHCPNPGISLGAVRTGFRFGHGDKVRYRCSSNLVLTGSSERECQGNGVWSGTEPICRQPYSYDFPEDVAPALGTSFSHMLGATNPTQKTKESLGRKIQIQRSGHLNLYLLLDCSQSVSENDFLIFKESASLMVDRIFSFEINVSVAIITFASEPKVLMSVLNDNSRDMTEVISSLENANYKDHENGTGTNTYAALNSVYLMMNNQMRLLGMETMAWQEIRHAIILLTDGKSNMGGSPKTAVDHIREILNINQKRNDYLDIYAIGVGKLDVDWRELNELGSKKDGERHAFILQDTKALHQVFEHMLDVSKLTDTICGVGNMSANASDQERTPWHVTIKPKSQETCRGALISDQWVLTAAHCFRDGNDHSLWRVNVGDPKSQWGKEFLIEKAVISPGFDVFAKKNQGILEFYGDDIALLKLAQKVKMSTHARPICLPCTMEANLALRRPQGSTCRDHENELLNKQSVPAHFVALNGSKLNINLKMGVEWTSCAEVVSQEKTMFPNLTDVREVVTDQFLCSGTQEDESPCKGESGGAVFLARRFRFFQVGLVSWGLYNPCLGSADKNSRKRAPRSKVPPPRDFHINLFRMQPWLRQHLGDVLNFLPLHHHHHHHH

human C2 A326S = molecular target: T2, human C2 A326S (human, UniProt P06681 21-752)
T2 sequence: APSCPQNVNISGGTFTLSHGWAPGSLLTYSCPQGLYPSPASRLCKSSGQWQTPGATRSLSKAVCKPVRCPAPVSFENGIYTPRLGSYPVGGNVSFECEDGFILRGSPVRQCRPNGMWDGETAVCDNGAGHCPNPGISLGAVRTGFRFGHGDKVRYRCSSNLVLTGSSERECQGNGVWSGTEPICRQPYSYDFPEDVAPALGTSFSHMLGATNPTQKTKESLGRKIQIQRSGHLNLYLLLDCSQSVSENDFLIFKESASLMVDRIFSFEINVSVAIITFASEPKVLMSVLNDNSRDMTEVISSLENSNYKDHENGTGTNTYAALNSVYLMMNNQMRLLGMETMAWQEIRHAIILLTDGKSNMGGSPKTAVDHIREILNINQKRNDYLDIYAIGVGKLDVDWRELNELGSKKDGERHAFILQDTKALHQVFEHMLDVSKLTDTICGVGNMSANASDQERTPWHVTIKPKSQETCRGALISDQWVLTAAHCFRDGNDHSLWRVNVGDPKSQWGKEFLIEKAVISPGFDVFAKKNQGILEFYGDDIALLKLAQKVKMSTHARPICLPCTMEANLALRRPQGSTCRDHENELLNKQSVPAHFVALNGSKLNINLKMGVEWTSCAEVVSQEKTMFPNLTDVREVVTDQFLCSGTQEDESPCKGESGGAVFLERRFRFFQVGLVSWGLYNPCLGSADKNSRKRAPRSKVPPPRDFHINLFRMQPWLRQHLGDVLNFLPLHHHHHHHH

human C2 L439A = molecular target: T3, human C2 L439A (human, UniProt P06681 21-752)
T3 sequence: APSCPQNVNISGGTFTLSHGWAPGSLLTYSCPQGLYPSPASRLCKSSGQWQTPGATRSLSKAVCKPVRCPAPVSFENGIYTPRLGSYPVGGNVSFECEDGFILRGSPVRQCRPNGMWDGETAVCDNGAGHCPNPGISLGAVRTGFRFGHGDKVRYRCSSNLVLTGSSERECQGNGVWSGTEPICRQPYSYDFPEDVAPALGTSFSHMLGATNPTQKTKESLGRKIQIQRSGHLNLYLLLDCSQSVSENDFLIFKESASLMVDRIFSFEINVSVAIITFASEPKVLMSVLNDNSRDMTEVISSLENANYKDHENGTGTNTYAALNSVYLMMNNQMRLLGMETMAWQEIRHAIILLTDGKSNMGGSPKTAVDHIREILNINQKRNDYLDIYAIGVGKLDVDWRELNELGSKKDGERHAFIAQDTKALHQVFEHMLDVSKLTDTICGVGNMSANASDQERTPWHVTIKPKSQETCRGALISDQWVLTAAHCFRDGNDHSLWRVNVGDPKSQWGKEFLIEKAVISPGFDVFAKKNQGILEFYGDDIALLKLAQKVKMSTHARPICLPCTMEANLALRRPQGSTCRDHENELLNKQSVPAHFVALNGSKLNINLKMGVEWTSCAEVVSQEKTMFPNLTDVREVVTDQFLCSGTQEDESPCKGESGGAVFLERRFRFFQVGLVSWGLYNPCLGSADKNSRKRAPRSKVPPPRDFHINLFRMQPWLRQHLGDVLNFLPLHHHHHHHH

human C2 G466A = molecular target: T4, human C2 G466A (human, UniProt P06681 21-752)
T4 sequence: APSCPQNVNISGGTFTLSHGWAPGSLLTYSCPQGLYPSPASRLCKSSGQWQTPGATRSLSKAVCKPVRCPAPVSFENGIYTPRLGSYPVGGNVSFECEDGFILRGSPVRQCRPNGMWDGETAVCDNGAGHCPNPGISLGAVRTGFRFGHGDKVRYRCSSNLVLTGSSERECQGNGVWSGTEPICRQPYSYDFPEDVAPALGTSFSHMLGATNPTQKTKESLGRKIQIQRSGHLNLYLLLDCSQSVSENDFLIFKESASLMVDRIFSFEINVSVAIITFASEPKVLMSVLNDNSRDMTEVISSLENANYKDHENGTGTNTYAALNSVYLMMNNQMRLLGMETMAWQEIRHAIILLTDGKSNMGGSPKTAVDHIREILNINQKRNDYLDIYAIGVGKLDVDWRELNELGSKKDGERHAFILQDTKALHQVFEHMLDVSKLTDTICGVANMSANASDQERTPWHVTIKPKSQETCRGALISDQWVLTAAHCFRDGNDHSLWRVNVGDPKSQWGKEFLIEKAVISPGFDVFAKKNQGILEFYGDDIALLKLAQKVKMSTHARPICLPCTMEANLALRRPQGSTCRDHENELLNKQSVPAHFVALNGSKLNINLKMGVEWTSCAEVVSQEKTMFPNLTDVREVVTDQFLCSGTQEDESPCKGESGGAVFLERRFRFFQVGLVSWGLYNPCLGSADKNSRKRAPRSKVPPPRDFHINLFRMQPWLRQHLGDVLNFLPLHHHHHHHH

Fold diff (human C2 E686A): 4 fold
Fold diff (human C2 A326S): 1 fold
Fold diff (human C2 L439A): 42 fold
Fold diff (human C2 G466A): 5 fold
B1: RF16-214 (antibody, V domains shown)
VH: EVQLLESGGGLVQPGGSLRLSCAASGFTFSWYQMMWVRQAPGKGLEWVSRIYPSGGGTAYADSVKGRFTISRDNSKNTLYLQMNSLRAEDTAVYYCARDAGYGDNWGQGTLVTVSS
VL: QSALTQPPSVSVSPGQTASITCSGDKLGEKYASWYQQKAGQSPVMVIYQDRKRPSGIPERFSGSNSGNTATLTISGTQAMDEADYYCQAWDTRAVVFGGGTKLTVLG
